T1: human C1s mutant M11 (S349P) (human, UniProt P09871 16-688)
T1 construct: The entry is the mutant itself
T1 sequence: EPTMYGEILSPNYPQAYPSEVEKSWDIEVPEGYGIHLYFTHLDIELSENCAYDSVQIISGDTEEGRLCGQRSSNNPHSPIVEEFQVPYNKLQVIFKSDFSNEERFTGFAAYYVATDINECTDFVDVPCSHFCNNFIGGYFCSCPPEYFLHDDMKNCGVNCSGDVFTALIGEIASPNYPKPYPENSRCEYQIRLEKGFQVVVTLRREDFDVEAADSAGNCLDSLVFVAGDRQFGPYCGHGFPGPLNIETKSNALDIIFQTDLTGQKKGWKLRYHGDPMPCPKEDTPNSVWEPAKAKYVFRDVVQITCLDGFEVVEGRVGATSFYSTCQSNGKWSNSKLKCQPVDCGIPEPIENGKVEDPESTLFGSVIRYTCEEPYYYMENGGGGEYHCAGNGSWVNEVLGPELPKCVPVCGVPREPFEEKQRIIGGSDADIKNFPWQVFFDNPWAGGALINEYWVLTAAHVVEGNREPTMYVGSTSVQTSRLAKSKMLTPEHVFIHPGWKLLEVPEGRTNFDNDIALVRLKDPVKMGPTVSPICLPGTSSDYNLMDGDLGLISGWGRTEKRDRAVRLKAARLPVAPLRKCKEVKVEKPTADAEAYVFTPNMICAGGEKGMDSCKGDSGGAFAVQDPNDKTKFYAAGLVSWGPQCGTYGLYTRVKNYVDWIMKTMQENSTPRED

T2: human C1s mutant M4 (P280A & E282K) (human, UniProt P09871 16-688)
T2 construct: The entry is the mutant itself
T2 sequence: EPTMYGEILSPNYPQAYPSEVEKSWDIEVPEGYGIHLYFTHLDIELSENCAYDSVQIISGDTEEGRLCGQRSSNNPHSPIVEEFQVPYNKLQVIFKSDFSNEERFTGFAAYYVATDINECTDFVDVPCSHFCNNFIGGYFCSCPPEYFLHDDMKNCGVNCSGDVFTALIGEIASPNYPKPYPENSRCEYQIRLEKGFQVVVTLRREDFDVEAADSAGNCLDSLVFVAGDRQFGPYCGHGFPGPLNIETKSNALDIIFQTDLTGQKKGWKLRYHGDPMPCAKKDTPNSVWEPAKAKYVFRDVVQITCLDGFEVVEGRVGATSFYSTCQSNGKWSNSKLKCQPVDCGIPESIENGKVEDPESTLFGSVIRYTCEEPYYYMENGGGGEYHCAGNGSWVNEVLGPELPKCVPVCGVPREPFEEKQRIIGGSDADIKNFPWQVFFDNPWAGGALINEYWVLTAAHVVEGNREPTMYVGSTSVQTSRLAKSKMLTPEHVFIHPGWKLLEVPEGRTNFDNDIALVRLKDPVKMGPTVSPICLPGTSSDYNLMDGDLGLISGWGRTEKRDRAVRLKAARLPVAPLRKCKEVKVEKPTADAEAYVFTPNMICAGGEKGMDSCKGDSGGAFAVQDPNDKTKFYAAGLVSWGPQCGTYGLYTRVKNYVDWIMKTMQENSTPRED

T3: human C1s mutant M6 (P280A, E282K & K336G) (human, UniProt P09871 16-688)
T3 construct: The entry is the mutant itself
T3 sequence: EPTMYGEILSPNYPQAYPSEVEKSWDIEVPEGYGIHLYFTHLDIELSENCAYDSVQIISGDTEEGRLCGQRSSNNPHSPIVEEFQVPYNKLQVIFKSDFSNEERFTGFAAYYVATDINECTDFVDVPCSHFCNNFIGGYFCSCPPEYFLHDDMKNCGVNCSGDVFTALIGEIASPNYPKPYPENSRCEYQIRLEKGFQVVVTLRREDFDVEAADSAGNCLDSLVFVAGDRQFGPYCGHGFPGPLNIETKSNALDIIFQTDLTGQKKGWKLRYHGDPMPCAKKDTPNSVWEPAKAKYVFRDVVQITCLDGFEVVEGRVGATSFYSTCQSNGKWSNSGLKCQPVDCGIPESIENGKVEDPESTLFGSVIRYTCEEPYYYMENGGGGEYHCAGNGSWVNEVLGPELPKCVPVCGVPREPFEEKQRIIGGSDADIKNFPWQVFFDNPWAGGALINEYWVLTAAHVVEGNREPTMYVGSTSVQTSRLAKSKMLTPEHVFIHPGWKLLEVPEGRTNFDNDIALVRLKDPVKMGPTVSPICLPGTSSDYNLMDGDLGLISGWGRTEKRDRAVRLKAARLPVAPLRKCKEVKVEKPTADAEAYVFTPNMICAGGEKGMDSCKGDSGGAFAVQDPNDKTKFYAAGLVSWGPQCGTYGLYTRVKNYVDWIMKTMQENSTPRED


Legend:
[1] = target: T1, human C1s mutant M11 (S349P); assay: ELISA, plate coated with human C1s mutant M11: S349P, OD450nm
Method: (§1) ELISA was carried out by first coating 96-well plates with 200 ng/well of full-length or truncated C1s proteins overnight. The next morning, plates were blocked with SuperBlock T20 blocking buffer (Thermo Scientific 37536) for 1 h with gentle shaking. Then, various concentrations of anti-C1s antibodies diluted in SuperBlock T20 blocking buffer were added to the plates and incubated for 1 h with gentle shaking. Mouse IgG (Sigma-Aldrich 15381) and human IgG1 (BioXCell BP0297) were used as negative controls. The plates were washed before incubating with HRP conjugated secondary antibodies diluted in SuperBlock T20 blocking buffer (goat anti-mouse IgG (H+L) cross-adsorbed secondary antibody HRP (Invitrogen G-21040) or goat anti-human IgG antibody, HRP conjugate (Millipore AP309P)) for 1 h with gentle shaking. At last, the plates were washed and color developed with ELISA liquid HRP substrate (Sigma-Aldrich), followed by stopping the reaction with addition of 1M H₂SO₄ in the same volume as the ELISA liquid substrate. Bound antibody was measured by absorbance at OD₄₅₀ₙₘ.
(§2) Binding of anti-C1s antibodies to mutants M1-M20 of human C1s was measured by ELISA as described in Example 4, and results are shown in FIGS. 6B-6U. All anti-C1s humanized variants including hz2-7(H1L2), hz2-8(H1L2 G80A) and hz2-8(H1L2 G80A/T82A) maintained strong binding properties to the majority (16 out of 20) of C1s mutants including M1 (FIG. 6B), M2 (FIG. 6C), M3 (FIG. 6D). M4 (FIG. 6E), M7 (FIG. 6H), M8 (FIG. 6I), M10 (FIG. 6K), M11 (FIG. 6L), M12 (FIG. 6M), M13 (FIG. 6N), M15 (FIG. 6P), M16 (FIG. 6Q), M17 (FIG. 6R), M18 (FIG. 6S), M19 (FIG. 6T) and M20 (FIG. 6U).

[2] = target: T2, human C1s mutant M4 (P280A & E282K); assay: ELISA, plate coated with human C1s mutant M4: P280A, E282K, OD450nm
Method: as §1, §2

[3] = target: T3, human C1s mutant M6 (P280A, E282K & …); assay: ELISA, plate coated with human C1s mutant M6: P280A, E282K, K336G, OD450nm
Method: as §1
Binding of anti-C1s antibodies to mutants M1-M20 of human C1s was measured by ELISA as described in Example 4, and results are shown in FIGS. 6B-6U. […]

EC50 [1] | EC50 [2] | EC50 [3] | Binder
0.005 µg/mL | 0.013 µg/mL | 0.013 µg/mL | Anti-C1s antibody hz2-7(H1L2) (antibody, V domains shown, Humanized, human IgG1 / kappa; also called hz2-7(1L2)) VH: EVQLLESGGGLVQPGGSLRLSCAASGFTFSNYFMNWVRQAPGKGLEWVSEIRLKFTNYATHYADSVKGRFTISRDDSKSTLYLQMNSLRAEDTAVYYCTRDYGSRNGYFDYWGQGTLVTVSS VL: DIVMTQTPLSLPVTPGEPASISCRSSKSLLHSNGNTFLYWFLQKPGQSPQLLIYRMSNLASGVPDRFSGSGSGTDFTLKISRVEAEDVGVYYCMQHLEYPYTFGGGTKLEIKR
0.004 µg/mL | 0.01 µg/mL | – | Anti-C1s antibody hz2-8 (H1L2 G80A) (antibody, V domains shown, Humanized variant with G80A in HC CDR2 (already in the entry), human IgG1 / kappa) VH: QVQLVQSGAEVKKPGASVKVSCKASGFNIKEYYMHWVRQAPEQGLEWMGWIDPENADTIYAQKFQGRVTITADTSTNTAYMELSSLRSEDTAVYYCARSRLFFAYWGQGTLVTVSS VL: DIQMTQSPKSLSASVGDRVTITCRASQDVRTALDWYQQKPGQSPKLLIYSASYRYSGVPSRFSGSGSGTDFTLTISSLQPEDFATYYCQQQYTTPYTFGQGTKLEIKR
0.005 µg/mL | 0.01 µg/mL | 0.06 µg/mL | Anti-C1s antibody hz2-8 (H1L2 G80A/T82A) (antibody, V domains shown, Humanized variant with G80A and T82A in HC CDR2 (already in the entry), human IgG1 / kappa) VH: QVQLVQSGAEVKKPGASVKVSCKASGFNIKEYYMHWVRQAPEQGLEWMGWIDPENADAIYAQKFQGRVTITADTSTNTAYMELSSLRSEDTAVYYCARSRLFFAYWGQGTLVTVSS VL: DIQMTQSPKSLSASVGDRVTITCRASQDVRTALDWYQQKPGQSPKLLIYSASYRYSGVPSRFSGSGSGTDFTLTISSLQPEDFATYYCQQQYTTPYTFGQGTKLEIKR

— US20230051715A1 (MABWELL THERAPEUTICS, published 2023)
